Assay results as given in PMC4024747 (Nature Communications, 2014).

Tests used:
[1] = biological target: T1, recombinant P. vivax SUB1 (Plasmodium vivax, PVX_097935 (Salvador …, UniProt E6Y8B9)); assay: western blot; conditions: both partners purified
T1 construct: also called PvSUB1

[2] = biological target: rPfSUB1cat, recombinant Plasmodium falciparum SUB1 core catalytic domain (38 kDa) (Plasmodium falciparum, UniProt Q8I0V0); assay: western blot; conditions: both partners purified
Sequence of rPfSUB1cat, recombinant Plasmodium falciparum SUB1 core catalytic domain (38 kDa) (Q8I0V0 333-668): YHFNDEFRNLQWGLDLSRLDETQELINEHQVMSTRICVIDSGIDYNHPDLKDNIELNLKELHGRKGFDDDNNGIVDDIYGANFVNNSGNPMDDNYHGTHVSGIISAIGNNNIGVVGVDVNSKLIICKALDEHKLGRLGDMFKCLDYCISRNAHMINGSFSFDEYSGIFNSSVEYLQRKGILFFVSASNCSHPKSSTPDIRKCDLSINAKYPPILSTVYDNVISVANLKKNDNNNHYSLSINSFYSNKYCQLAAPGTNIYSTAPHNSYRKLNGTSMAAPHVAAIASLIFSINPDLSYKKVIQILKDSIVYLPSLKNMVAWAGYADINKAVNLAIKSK

T1 sequence (E6Y8B9 26-630): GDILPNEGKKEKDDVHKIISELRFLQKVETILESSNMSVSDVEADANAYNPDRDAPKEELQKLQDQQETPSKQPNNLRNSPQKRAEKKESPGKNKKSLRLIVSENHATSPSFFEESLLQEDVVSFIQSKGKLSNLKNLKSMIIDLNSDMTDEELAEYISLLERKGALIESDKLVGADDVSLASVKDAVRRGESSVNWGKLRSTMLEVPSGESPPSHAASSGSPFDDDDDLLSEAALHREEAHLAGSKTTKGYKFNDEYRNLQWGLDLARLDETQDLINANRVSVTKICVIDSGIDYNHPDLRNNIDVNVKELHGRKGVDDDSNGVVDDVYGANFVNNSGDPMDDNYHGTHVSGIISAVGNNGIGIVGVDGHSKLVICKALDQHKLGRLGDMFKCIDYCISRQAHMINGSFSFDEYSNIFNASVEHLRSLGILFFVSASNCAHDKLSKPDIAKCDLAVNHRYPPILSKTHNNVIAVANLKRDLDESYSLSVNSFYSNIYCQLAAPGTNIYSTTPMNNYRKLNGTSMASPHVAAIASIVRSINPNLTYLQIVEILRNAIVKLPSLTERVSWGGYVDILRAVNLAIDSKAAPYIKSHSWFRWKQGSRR

B1: mAb NIMP.M7, PfSUB1-specific monoclonal antibody (whole antibody) (antibody, V domains shown)
VH: QVQLQESGPDLVKPSSSLKLTCTTTGYSISSGYSWHWIRQEPGKSLEWMGYIHYSGSTDYNDSLKARITITRDTASNMFFLQLSSVTSDDTAVYYCVIYRYDGQWVFDDWGAGTTVTVSS
VL: DIVLTQSPATMSASLGQRVSMSCSASSSVSTSYFHWYQQKPGSSPKLWIYSTSNLASGVPGRFSGSGSGTSYSLSISSMEAEDAATYYCHQFHRSPLTFGAGTKLELK
- binding result [1]: binds
- binding result [2]: binds
